Results on 33 sequences are retold here after the NTF2 design screens of Basanta et al. (2020).

The data set can be described thus: protease stability score; higher = more stable; yeast display proteolysis, trypsin and chymotrypsin.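 Further: relative to predicted unfolded state with 0 unfolded-like and 1 meaning tenfold more protease.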
In the case of “SEDIEHVEEALEMFRETLITGDEEIIRRLIDPHVRIIINGREYHGREAMDHFMKRFDVIHNLHITHWEDINGRMHVHGRIEGNIDGKTDVIETRILVVKVDGQWWFETIRIG”, the protease stability score was 2.27.
As for “SEDIEIVKQVLEFHIRSEITGDEDTMTELLDPHTRITIGDKHIHGREEAVRILLEIANHMRIHRFHVHQVHIYDGRLEIDMRIDREYDGKRRHQEVWWIFIKVNGRWYIHSIEIR”, the protease stability score amounted to 1.67.
As to “SEDIELVHNIMEHMAKAFTTGDERHLLNLFDPNVRFMINGQNYVGWEHLINWIEHIRIKRVDLRINDVKLIGDKLHIHGRFIVRGQIDGREIDRVEDTRINFQKINGRWIIEELHFV”, the protease stability score worked out at 2.61.
Next, “SEDIKEIKDILRTMYEAFITGDWRTVAKLFDPHVRIEYDGVRLHGREHVEHFLRHLRERVEWHHIEDTQEQGDYIELHGRTILNIEIGDKRDRRDSHFILMMVKVDGRWLIHRIIIR”: 2.21; “SEDKDNAQDLLHHVVKAWNTGDEDLTRKLFDPHVRLDINGVEIHGWRDLLRVLRELRLRVEMRVHDADFINGVIHLYTTVHSHIHFNGVDFHFHHETRMIILKINGRWLVHSITYL”: 0.675.
For “SEDKEADEIIIEKIMRALTTGDENLWKRLLDPNVRFEYDGVEMHGWEEIKKLLERIDHFHVDDHKIKDVRIIDGRIDNYGRLRGTIDINGREIHTILHVRILVLKIDGKWTVESEHSK”, the protease stability score was 1.43.
“SEDKEAFHRVMKLLLHAWRTGDEDREKELFDPNVRFIIGDKIIIGREEWLKLLRRIDHLEVDLDIKRLEVIGDKIKAEFRLHEILKIDGVEIHQEHEVRLHLHKINGRWIIERVHVE” came in with a protease stability score of 0.845.
With “SEDKEEAEEFVRIFNEALITGDFEFIEHLADPNVKYRQGEYHEHGRESLSHMFRFLGWSNVKIHLRHIKFYGDKIEVHGEVRIDGRTHWVNSYITKYDGRWYLTSLQIE”, the protease stability score was found to be 1.21.
Take “SEDKELADRFLNHITHLIRTGDENALSENLDPNTRLHIGDKHYIGWEEFLRIISERWKRADHQDVKLRDSRVQGDKVHLDGEIILIVDGKEIRHDFRIIVYKIDGRWHLESIRIG”: the protease stability score is 2.09.
“SEDKELAERLYHLLLRTLITGDEKQLIDNMDPDARVHVGDKHRHGMEWMNRYLHELRIRDQDDKDIRLQGNKVHVDGHVRGNINGQEIDYRFHIELITINGVVHMINIQIR” had a protease stability score of 0.945.
“SEDKEMADWAIEIWVKSIRTGDEHTQLHLVDPHYREDVGDKEIHGRDELRRHMHEARVDEFRHKIDRMRTQGNKVHLDGIFQMKIRIDGKVDHIEFHSRLVVEKVDGRWLVKSLHIN” registered a protease stability score of 1.21.
Next, “SEDKHMLELALKLLKDSWKTGDEHLSERLMDPHVRLEQGDKEFHGREASQLWFRQIDHVEDMHVHRIRMINGKAYMDVHVVGNVNGKHVEFHQHIVFHKVNGRWIVESVVDS”: 1.26; “SEDKKATNEASEIIIRLLKTGDEHLANHYIDPNVRMIFENRDVHGRETFEEWMRRVDHFHHYDVRHVHTQGDKINIDSEHNIHINGQEEIKDVYWISTKIDGKWILKSIEVR”: 1.28.
In turn, “SEDKKTLEHYFRELMHVLQTGDETEFVKLLDPDARLIIGDKSDHGREEVSRSLLEFQRILGIDHLEFRHTHLDIQGDKITIILQVRMKVNGREHHSRLIFVAEKVNGRWVLRSVIFEIH” gave a protease stability score of 2.18.
Consider “SEDKNAVHEIVERFLKAMLTGDEHILKTLLDPHVRLHIGDKSRVGMERVIHELIHIRIHELRVESMEMRLWDGRAEVHVFGEVRQRVDGQERNITTSIILHIEKIDGRWHLTQLQFIIS”, for which the protease stability score was found to be 2.53.
As to “SEDMERAESFHREWLEFSRTGDEDTLRSLLDPNARLRYGDKEYHGMDSLSRVDRELRVHDSRVHDLRIIDGRVHMDVDLDGTYNGKRVLLHTHFVVEKIDGRWILRSVHIH”, the protease stability score was 0.643.
Turning to “SEDNEHLRKFLEDFIRAMETGDWKMLFRLMDPNVRMEVNGRELHGREEAKKLIEEIISRYDHVHIEIKRAHSIGDKIEVWGISDVEIGDKKHEIPLLFILKKVDGKWIIHSIRSE”, the protease stability score was 2.11.
“SEDNEIIHEMVQLFVDLFFTGDWEMLLSLFDPNVRMIVNGKTIHGRENIAHEVREFLERFKNVRFRDATIEHYSWQGDKLHAQIHIEGEINGRDRHSNVHIHITKIDGKWLITRIEVR” came in with a protease stability score of 2.39.
In turn, “SEDQEAMDRAIKIFEEIVDTGNERLSRENMDPRTRIVFEGVHLHGREEAVRHHRELWKRVDVMEMRTEDYRFFDGRVHQTTRLHLNYNGREETYETRFLVEKVNGKWFIKSIIIV” had a protease stability score of 0.272.
For “SEDQEEAEHVFEQWIRVLTTGDEETAHKMADPNTRMHFNGKDIHGMDTIAKEFHDLGITLQSIRMRHVERQGDKIHIHSRRTFEVNGVHLNTEVHHSLVKIDGRWTFQHTYVH”, the protease stability score turned out to be 0.086.
Next, “SEDQEESEKFLKDLIRVILTGNEESLMKLADPHARFHIGDKTYIGWDKWVRMLSERVRDLGIRIEIRVHDFHVYNGVAENDHRHHVHFENHEYNHIMILHDDKINGKWTIRTLVIK”: 1.13; “SEDQEIAVKLLHEMMEALRTGDEDYLRRLFDPNMRFNQGDKTHHGMDWVHSFLRRYDYFEVRHVRVHHVEVQGEKIIIDGRLEGSIRVDGVLQENEISVIFIIIKINGKWFVQTIRFN”: 1.21.
For “SEDQEMSDHASSLLLHTMETGDFRLLHEFLDPNTRVSVNGRDVIGRDETVRHMIEHIKILGVSKVEARLHDVKLINGVAENDVEIDFNGRRIRVWWFVEKINGRWVITHMRVL”, the protease stability score was 1.47.
Next, “SEDQEVAEKDLEIYSRAITTGNEHELKHLLDPNYKLIVNGQEYHGWETLRHYWKHLRVESVEFEIRSFDSQGDKLHIDGIIILHGEVDGRHTELFEDVHIRAHKINGRWHNKEVNIR”: 0.897; “SEDQHDAEWALRLFVRLHETGDFEEIYRNADPNMRWFVNGVDSHGRENASKLLHKLMDDLGIDHVQIEHVELRVQGEKIIVHMRVTQVINGREVDSRIEVHMEKFDGKWELKHVELRIH”: 1.31.
As for “SEDQHELTTLLEHLLRIHRTGDFHTLERLMDPNTWTLVDGVWFVGREAVEYSNKLIKFTKRIEIDHFEIQGEKATIHGTYHSHYNGREFHIHVTTYYQKINGRWVLHSIEFR”, the protease stability score stood at 1.38.
In turn, “SEDQKFFEELVRLMYEYSLTGDWELSERLLDPNALIDIDGVEFHGREIFVESMRHIRLDHIEIRHVESINGRIHAKTEVDGTVNGQRRRRDVEIHLLKVNGRWYIRRVNFK” showed a protease stability score of 2.45.
For the sequence “SEDQREIKDFFKILSKALTTGDEEITSAMMDPHVRMDYNGKEHHGRDFLTELMKRADHWEHRLEVRSVRIIGDKVDVEGHMILHILIGDKEIRVRVDLDIELWKVDGRWIVKEITIK”, the protease stability score stood at 1.04.
Regarding “SEDREEYHELLKRMIHALMTGDWRDFEKLFDPNARLEVNGQIFHGREDVVKWLRDVLKRYDHIEHFRIRTEEYQGDKIIMDGELHKVINGQHIVTRVRIEVWVVDGRLKRRSEREE”, the protease stability score worked out at 1.51.
For the sequence “SEDREFAEKMLRIVSDLENTGDEEKARHLLDPNVRSVIDGQDLIGWHLRRHWLHELRIKSHRVDVHDIHVYNGQIEFNVREDGNIVVNGVEIRIELRTKMTFRKFDGQWYVKSIEIK”, the protease stability score worked out at 1.45.
“SEDREFMKTDLERWRHDLLTGDEESSHRLADPHVRVYIGDKEFIGREELRRVLREFIERFKGARIEVRLRSLHLIDGRMHIDTEWHIHVGEKHIMLDIKINQDKVNGRWELRNEVIS” gave a protease stability score of 1.11.
Consider “SEDRENFHRFWKELLRYYLTGDEDALTRMFDPNAQMIYGDKHYHGREVLEFIHHQVDVFRSVEIESSRSINGVVIIHVRLNGEYNGQQENTEFTLVFEKINGRWRIKQVRSE”, for which the protease stability score was found to be 1.11.
“SEDRENIYRQIREVEEALKTGDEELMLHLMDPHVRIDINGRHNHGREEMVRFIREIRISLKHVDIHHVQDDENELIVHVRVNLVIEVDGKRREEEDNALFIFVKIDGRWVFSIIRIQ” returned a protease stability score of 1.76.
